Patent publication US20260028403A1 (Zymeworks, published 2026)

B1: v34919 (bispecific antibody, human IgG1, lambda, L234A L235A)
heavy 1: not shown
heavy 2: EIVLTQSPATLSLSPGERVTMSCSASSSVSYMHWYQQKPGQAPRLWIYDTSKLASGVPARFSGSGSGTDYTLTISSVEPEDNAVYYCQQWSGHPLTFGQGTKVEIKGGGGSGGGGSGGGGSGGGGSQVQLVQSGAEVKKPGASVKISCKASGYSFTGYTMNWVRQAPGQGLEWIGLITPYSGASSYAQKFQGRATLTVDKSTSTAYMELSSLRSEDTAVYYCARGGYDGRGFDYWGQGTNVTVSSAAEPKSSDKTHTCPPCPAPEAAGGPSVFLFPPKPKDTLMISRTPEVTCVVVSVSHEDPEVKFNWYVDGVEVHNAKTKPREEQYNSTYRVVSVLTVLHQDWLNGKEYKCKVSNKALPAPIEKTISKAKGQPREPQVYVLPPSRDELTKNQVSLLCLVKGFYPSDIAVEWESNGQPENNYLTWPPVLDSDGSFFLYSKLTVDKSRWQQGNVFSCSVMHEALHNHYTQKSLSLSPG
light: NFMLTQPHSVSESPGKTVTISCKRNTGNIGSNYVNWYQQHEGSSPTTIIYRNDKRPDGVSDRFSGSIDRSSKSASLTISNLKTEDEADYFCQSYSSGFIFGGGTKLTVLGQPKAAPSVTLFPPSSEELQANKATLVCLISDFYPGAVTVAWKADSSPVKAGVETTTPSKQSNNKYAASSYLSLTPEQWKSHRSYSCQVTHEGSTVEKTVAPTECS
notes: MSLN VL-VH scFv); also called anti-(MSLNxCD3) bispecific control
B2: v37692 (trispecific antibody, human IgG1, kappa, L234A L235A)
heavy 1: not shown
heavy 2: QVQLVESGGGLVQPGGSLRLSCSVSGIDLSSNPMIWVRQAPGKGLQYIGIIDTDGSTYYADWAKGRFTISKDSTTVYLQINSPRAEDTAVYYCARRLHGSSNGYYDDLWGQGTLVTVSSGGGGSGGGGSGGGGSGGGGSDGQMTQSPSSVSASVGDRVTITCQASQSIYSYLSWYQQKPGQRPKLLIYKASTLASGVPSRFSGSGSGTDFTLTISSVQPEDFATYYCQQGYTVTNVDKNTFGGGTKVEIKAAEPKSSDKTHTCPPCPAPEAAGGPSVFLFPPKPKDTLMISRTPEVTCVVVSVSHEDPEVKFNWYVDGVEVHNAKTKPREEQYNSTYRVVSVLTVLHQDWLNGKEYKCKVSNKALPAPIEKTISKAKGQPREPQVYVLPPSRDELTKNQVSLLCLVKGFYPSDIAVEWESNGQPENNYLTWPPVLDSDGSFFLYSKLTVDKSRWQQGNVFSCSVMHEALHNHYTQKSLSLSPG
light: DIQMTQSPSSLSASVGDRVTITCRASESVEYYVTSLMQWYQQKPGKAPKLLIYAASNVDSGVPSRFSGSGSGTDFTLTISSLQPEDIATYYCQQSRKVPFTFGGGTKVEIKRTVAAPSVFIFPPSDEQLKSGTASVVCLLNNFYPREAKVQWKVDNALQSGNSQESVTEQDSKDSTYSLSSTLTLSKADYEKHKVYACEVTHQGLSSPVTKSFNRGEC
notes: also called v37638 format, CD28 VH Y1113S
B3: v34927 (bispecific antibody, human IgG1, kappa, L234A L235A)
heavy 1: not shown
heavy 2: EIVLTQSPATLSLSPGERVTMSCSASSSVSYMHWYQQKPGQAPRLWIYDTSKLASGVPARFSGSGSGTDYTLTISSVEPEDNAVYYCQQWSGHPLTFGQGTKVEIKGGGGSGGGGSGGGGSGGGGSQVQLVQSGAEVKKPGASVKISCKASGYSFTGYTMNWVRQAPGQGLEWIGLITPYSGASSYAQKFQGRATLTVDKSTSTAYMELSSLRSEDTAVYYCARGGYDGRGFDYWGQGTNVTVSSAAEPKSSDKTHTCPPCPAPEAAGGPSVFLFPPKPKDTLMISRTPEVTCVVVSVSHEDPEVKFNWYVDGVEVHNAKTKPREEQYNSTYRVVSVLTVLHQDWLNGKEYKCKVSNKALPAPIEKTISKAKGQPREPQVYVLPPSRDELTKNQVSLLCLVKGFYPSDIAVEWESNGQPENNYLTWPPVLDSDGSFFLYSKLTVDKSRWQQGNVFSCSVMHEALHNHYTQKSLSLSPG
light: DIQMTQSPSSLSASVGDRVTITCRASESVEYYVTSLMQWYQQKPGKAPKLLIYAASNVDSGVPSRFSGSGSGTDFTLTISSLQPEDIATYYCQQSRKVPFTFGGGTKVEIKRTVAAPSVFIFPPSDEQLKSGTASVVCLLNNFYPREAKVQWKVDNALQSGNSQESVTEQDSKDSTYSLSSTLTLSKADYEKHKVYACEVTHQGLSSPVTKSFNRGEC
notes: MSLN VL-VH scFv); also called anti-(MSLNxCD28) bispecific control
B4: v34913 (trispecific antibody, human IgG1, kappa, L234A L235A)
heavy 1: not shown
heavy 2: EIVLTQSPATLSLSPGERVTMSCSASSSVSYMHWYQQKPGQAPRLWIYDTSKLASGVPARFSGSGSGTDYTLTISSVEPEDNAVYYCQQWSGHPLTFGQGTKVEIKGGGGSGGGGSGGGGSGGGGSQVQLVQSGAEVKKPGASVKISCKASGYSFTGYTMNWVRQAPGQGLEWIGLITPYSGASSYAQKFQGRATLTVDKSTSTAYMELSSLRSEDTAVYYCARGGYDGRGFDYWGQGTNVTVSSAAEPKSSDKTHTCPPCPAPEAAGGPSVFLFPPKPKDTLMISRTPEVTCVVVSVSHEDPEVKFNWYVDGVEVHNAKTKPREEQYNSTYRVVSVLTVLHQDWLNGKEYKCKVSNKALPAPIEKTISKAKGQPREPQVYVLPPSRDELTKNQVSLLCLVKGFYPSDIAVEWESNGQPENNYLTWPPVLDSDGSFFLYSKLTVDKSRWQQGNVFSCSVMHEALHNHYTQKSLSLSPG
light: DIQMTQSPSSLSASVGDRVTITCRASESVEYYVTSLMQWYQQKPGKAPKLLIYAASNVDSGVPSRFSGSGSGTDFTLTISSLQPEDIATYYCQQSRKVPFTFGGGTKVEIKRTVAAPSVFIFPPSDEQLKSGTASVVCLLNNFYPREAKVQWKVDNALQSGNSQESVTEQDSKDSTYSLSSTLTLSKADYEKHKVYACEVTHQGLSSPVTKSFNRGEC
notes: CD3 scFv on N-terminus of CD28 Fab; MSLN scFv-Fc; Het Fc, FcKO; also called CD3xCD28xMSLN trispecific
B5: v37693 (trispecific antibody, human IgG1, kappa, L234A L235A)
heavy 1: not shown
heavy 2: QVQLVESGGGLVQPGGSLRLSCSVSGIDLSSNPMIWVRQAPGKGLQYIGIIDTDGSTYYADWAKGRFTISKDSTTVYLQINSPRAEDTAVYYCARRLHGSSNGYYDDLWGQGTLVTVSSGGGGSGGGGSGGGGSGGGGSDGQMTQSPSSVSASVGDRVTITCQASQSIYSYLSWYQQKPGQRPKLLIYKASTLASGVPSRFSGSGSGTDFTLTISSVQPEDFATYYCQQGYTVTNVDKNTFGGGTKVEIKAAEPKSSDKTHTCPPCPAPEAAGGPSVFLFPPKPKDTLMISRTPEVTCVVVSVSHEDPEVKFNWYVDGVEVHNAKTKPREEQYNSTYRVVSVLTVLHQDWLNGKEYKCKVSNKALPAPIEKTISKAKGQPREPQVYVLPPSRDELTKNQVSLLCLVKGFYPSDIAVEWESNGQPENNYLTWPPVLDSDGSFFLYSKLTVDKSRWQQGNVFSCSVMHEALHNHYTQKSLSLSPG
light: DIQMTQSPSSLSASVGDRVTITCRASESVEYYVTSLMQWYQQKPGKAPKLLIYAASNVDSGVPSRFSGSGSGTDFTLTISSLQPEDIATYYCQQSRKVPFTFGGGTKVEIKRTVAAPSVFIFPPSDEQLKSGTASVVCLLNNFYPREAKVQWKVDNALQSGNSQESVTEQDSKDSTYSLSSTLTLSKADYEKHKVYACEVTHQGLSSPVTKSFNRGEC
notes: also called v37638 format, CD28 VH Y1037A
B6: v37695 (trispecific antibody, human IgG1, kappa, L234A L235A)
heavy 1: not shown
heavy 2: QVQLVESGGGLVQPGGSLRLSCSVSGIDLSSNPMIWVRQAPGKGLQYIGIIDTDGSTYYADWAKGRFTISKDSTTVYLQINSPRAEDTAVYYCARRLHGSSNGYYDDLWGQGTLVTVSSGGGGSGGGGSGGGGSGGGGSDGQMTQSPSSVSASVGDRVTITCQASQSIYSYLSWYQQKPGQRPKLLIYKASTLASGVPSRFSGSGSGTDFTLTISSVQPEDFATYYCQQGYTVTNVDKNTFGGGTKVEIKAAEPKSSDKTHTCPPCPAPEAAGGPSVFLFPPKPKDTLMISRTPEVTCVVVSVSHEDPEVKFNWYVDGVEVHNAKTKPREEQYNSTYRVVSVLTVLHQDWLNGKEYKCKVSNKALPAPIEKTISKAKGQPREPQVYVLPPSRDELTKNQVSLLCLVKGFYPSDIAVEWESNGQPENNYLTWPPVLDSDGSFFLYSKLTVDKSRWQQGNVFSCSVMHEALHNHYTQKSLSLSPG
light: DIQMTQSPSSLSASVGDRVTITCRASESVEYYVTSLMQWYQQKPGKAPKLLIYAASAVDSGVPSRFSGSGSGTDFTLTISSLQPEDIATYYCQQSRKVPFTFGGGTKVEIKRTVAAPSVFIFPPSDEQLKSGTASVVCLLNNFYPREAKVQWKVDNALQSGNSQESVTEQDSKDSTYSLSSTLTLSKADYEKHKVYACEVTHQGLSSPVTKSFNRGEC
notes: also called v37638 format, CD28 VL N1066A

Key:
[1] = biological target: T1, Recombinant human CD3 epsilon/delta heterodimer, his tag protein (Acro Biosystems) (human, UniProt P07766 23-126; P04234 22-105); experiment: SPR Biacore T200, CD3 e/d-his on CM5, construct injected, 1:1 model;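 note: measured at 25 °C in HEPES-buffered saline with EDTA and Tween 20 at pH 7.4, values are means of three independent runs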
T1 construct: bought

[2] = biological target: T2, Recombinant MSLN his tag protein (R&D systems) (UniProt Q13421 296-580, limits assumed); experiment: SPR Biacore T200, MSLN-his on CM5, construct flowed, 1:1 model
T2 construct: his tag; also called mesothelin

[3] = biological target: T3, CD28 on primary human T cells (human, UniProt P10747 19-220); experiment: cell-based or functional assay
[4] = biological target: T3, CD28 on primary human T cells; experiment: cell-based or functional assay; remark: listed apart in the source
[5] = biological target: T4, Recombinant human/cynomolgus/rhesus macaque CD28 mouse IgG2a Fc fusion protein (Acro Biosystems) (human/cynomolgus/rhesus macaque, UniProt P10747 19-152); experiment: SPR, in-format anti-CD28 variants, huCD28
T4 construct: bought; also called huCD28

[6] = biological target: T4, Recombinant human/cynomolgus/rhesus …; experiment: SPR Biacore T200, CD28-mIgG2a Fc on CM5, construct injected, 1:1 model;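 note: fc fusion captured by amine coupling, run at 25 °C in HEPES buffer pH 7.4, association 140-500 s then dissociation 600-1200 s, values averaged over three independent runs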

Binder | Kd [1] | koff [1] | kon [1] | Kd [2] | koff [2] | kon [2] | IC50, T cell-dependent cytotoxicity on SNU 601 [3] | Maximum Killing (%), SNU 601 [3] | IL-2 maximum cytokine, T cells alone [4] | IL-2 maximum cytokine, T cells with SNU 601 cells [4] | TNFa maximum cytokine, T cells alone [4] | TNFa maximum cytokine, T cells with SNU 601 cells [4] | Fold-change from WT [5] | Kd [5] | koff [5] | kon [5] | Kd [6] | koff [6] | kon [6]
B1 | 50.4 nM | 0.0131 s⁻¹ | 267000 M⁻¹ s⁻¹ | 4.16 nM | 0.00181 s⁻¹ | 458000 M⁻¹ s⁻¹ | – | – | – | – | – | – | – | – | – | – | – | – | –
B2 | – | – | – | – | – | – | 0.63 pM | 91.5% | 120 pg/mL | 2890 pg/mL | 20.2 pg/mL | 476 pg/mL | 95.1 fold | 2110 nM | 0.0613 s⁻¹ | 32200 M⁻¹ s⁻¹ | – | – | –
B3 | – | – | – | 6.86 nM | 0.00187 s⁻¹ | 270000 M⁻¹ s⁻¹ | – | – | – | – | – | – | – | – | – | – | 50.7 nM | 0.00258 s⁻¹ | 50900 M⁻¹ s⁻¹
B4 | 41.6 nM | 0.0112 s⁻¹ | 270000 M⁻¹ s⁻¹ | 6.49 nM | 0.00212 s⁻¹ | 340000 M⁻¹ s⁻¹ | – | – | – | – | – | – | – | – | – | – | 45.8 nM | 0.00216 s⁻¹ | 47400 M⁻¹ s⁻¹
B5 | – | – | – | – | – | – | 0.13 pM | 95.3% | 104 pg/mL | 3600 pg/mL | 19.7 pg/mL | 453 pg/mL | 4.1 fold | 91.8 nM | 0.00968 s⁻¹ | 106000 M⁻¹ s⁻¹ | – | – | –
B6 | – | – | – | – | – | – | 0.04 pM | 89.1% | 28.9 pg/mL | 3470 pg/mL | 13 pg/mL | 404 pg/mL | 1.3 fold | 27.7 nM | 0.00266 s⁻¹ | 95100 M⁻¹ s⁻¹ | – | – | –
